The text below walks through data of US20200079833A1 (AstraZeneca / MedImmune, published 2020).

Starred links: 1 amine or outer side, 2 acyl side, 3 side chain; linkers in the order of their positions; H or OH if unused. Non-standard residues stand in square brackets, D forms with d. Groups on a side chain read outwards from the residue. Primed or numbered codes have the meaning given here. No end group written: not given here. *: point of attachment. γGlu = O=C(O)[C@H](CCC(=O)[*:2])N[*:1]; Palmitoyl = CCCCCCCCCCCCCCCC(=O)*; αMeF = C[C@](N)(Cc1ccccc1)C(=O)O; αMeK = C[C@](N)(CCCCN)C(=O)O; Lauroyl = CCCCCCCCCCCC(=O)*; PEG2′ = not defined here; Aib = CC(C)(N)C(=O)O

T1: glucose-dependent insulinotropic peptide (gastric inhibitory polypeptide) receptor (GIPR), primary cAMP assay (human, UniProt P48546 22-466)
T1 sequence (looked up): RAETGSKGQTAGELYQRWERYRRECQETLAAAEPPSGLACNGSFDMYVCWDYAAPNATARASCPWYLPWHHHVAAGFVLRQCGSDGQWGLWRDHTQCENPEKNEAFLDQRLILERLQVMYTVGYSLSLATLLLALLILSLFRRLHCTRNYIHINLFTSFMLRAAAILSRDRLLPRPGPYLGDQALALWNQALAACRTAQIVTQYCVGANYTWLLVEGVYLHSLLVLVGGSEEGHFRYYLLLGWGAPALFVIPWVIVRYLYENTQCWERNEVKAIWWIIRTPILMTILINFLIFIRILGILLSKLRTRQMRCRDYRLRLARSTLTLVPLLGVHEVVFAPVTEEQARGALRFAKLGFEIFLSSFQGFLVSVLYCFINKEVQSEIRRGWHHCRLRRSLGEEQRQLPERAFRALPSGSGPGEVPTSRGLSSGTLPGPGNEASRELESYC

T2: GLP-1R in the INS1e assay (UniProt P32301 22-463, limits assumed)
T2 sequence (looked up): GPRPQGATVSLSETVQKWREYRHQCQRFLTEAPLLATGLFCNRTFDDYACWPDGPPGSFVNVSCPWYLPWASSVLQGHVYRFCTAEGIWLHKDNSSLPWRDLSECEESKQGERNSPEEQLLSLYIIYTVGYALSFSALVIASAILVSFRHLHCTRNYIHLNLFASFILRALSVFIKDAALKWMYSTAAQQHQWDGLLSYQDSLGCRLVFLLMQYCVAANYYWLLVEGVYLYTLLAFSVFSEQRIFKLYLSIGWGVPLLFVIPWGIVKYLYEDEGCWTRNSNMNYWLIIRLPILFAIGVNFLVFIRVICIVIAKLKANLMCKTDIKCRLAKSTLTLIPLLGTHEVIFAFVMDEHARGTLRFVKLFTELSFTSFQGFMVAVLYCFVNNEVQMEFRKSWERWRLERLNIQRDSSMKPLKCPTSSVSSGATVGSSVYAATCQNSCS

B1: SEQ ID NO: 238 (peptide)
peptide: H[Aib]EGTFTSDVSK([PEG2′-PEG2′-γGlu-Lauroyl])YLEGEAAEEFIK([PEG2′-PEG2′-γGlu-Lauroyl])FVVEGG-NH2
B2: SEQ ID NO: 248 (peptide)
peptide: H[Aib]EGS[αMeF]TSDVSK([PEG2′-PEG2′-γGlu-Lauroyl])FLEGEAA[αMeK]EFIK([PEG2′-PEG2′-γGlu-Lauroyl])FVVEGG-NH2
B3: SEQ ID NO: 239 (peptide)
peptide: H[Aib]EGTFTSDVSK([PEG2′-PEG2′-γGlu-Lauroyl])FLEGEAAEEFIK([PEG2′-PEG2′-γGlu-Lauroyl])FVVEGG-NH2
B4: SEQ ID NO: 250 (peptide)
peptide: H[Aib]EGS[αMeF]TSDVSK([PEG2′-PEG2′-γGlu-Palmitoyl])FLEGEAA[αMeK]EFIK([PEG2′-PEG2′-γGlu-Palmitoyl])FVVEGG-NH2
B5: SEQ ID NO: 247 (peptide)
peptide: H[Aib]EGS[αMeF]TSDVSK([PEG2′-PEG2′-γGlu-Palmitoyl])FLEGEAAEEFIK([PEG2′-PEG2′-γGlu-Palmitoyl])FVVEGG-NH2
B6: SEQ ID NO: 249 (peptide)
peptide: H[Aib]EGS[αMeF]TSDVSK([PEG2′-PEG2′-γGlu-Lauroyl])YLEGEAA[αMeK]EFIK([PEG2′-PEG2′-γGlu-Lauroyl])WVVEGG-NH2

One assay addresses GLP-1 receptor (GLP-1R), primary cAMP assay (human, UniProt P43220 24-463). As to the kind of experiment: cell-based or functional assay.
Take B1: the “Primary assay EC50 (cAMP) Mean” value was 11 pM; the “Primary assay EC50 (cAMP), n1” value was 8.75 pM; the “Primary assay EC50 (cAMP), n2” value turned out to be 13.2 pM.
On to B2, for which the “Primary assay EC50 (cAMP) Mean” value was found to be 5 pM; the “Primary assay EC50 (cAMP), n1” value was found to be 3.77 pM; the “Primary assay EC50 (cAMP), n2” value stood at 6.2 pM.
The matching figures for B3: 7.4 pM, 6.3 pM and 8.45 pM.
The matching figures for B4: 45.1 pM, 29.2 pM and 61 pM.
Turning to B5, the “Primary assay EC50 (cAMP) Mean” value came out at 1660 pM; the “Primary assay EC50 (cAMP), n1” value worked out at 1310 pM; the “Primary assay EC50 (cAMP), n2” value is 2020 pM.
The matching figures for B6: 5.5 pM, 4.47 pM and 6.49 pM.

For another assay, the target named is glucagon receptor (GCGR), primary cAMP assay (human, UniProt P47871 26-477). As to the kind of experiment: cell-based or functional assay.
Chain of glucagon receptor (GCGR), primary cAMP assay (P47871 26-477): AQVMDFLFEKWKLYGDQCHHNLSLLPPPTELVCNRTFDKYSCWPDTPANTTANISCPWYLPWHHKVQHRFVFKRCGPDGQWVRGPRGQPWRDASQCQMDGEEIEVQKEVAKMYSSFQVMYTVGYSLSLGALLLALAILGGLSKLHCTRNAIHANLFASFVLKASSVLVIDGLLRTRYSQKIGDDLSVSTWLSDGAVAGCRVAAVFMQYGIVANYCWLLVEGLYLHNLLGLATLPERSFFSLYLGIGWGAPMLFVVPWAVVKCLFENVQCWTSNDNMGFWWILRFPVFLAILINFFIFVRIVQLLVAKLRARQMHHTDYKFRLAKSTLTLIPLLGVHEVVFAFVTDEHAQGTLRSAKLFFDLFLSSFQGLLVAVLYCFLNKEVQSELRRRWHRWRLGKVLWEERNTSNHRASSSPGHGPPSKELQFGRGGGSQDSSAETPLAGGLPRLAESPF
For the molecule B1, the “Primary assay EC50 (cAMP), n1” value is 22.4 nM and the “Primary assay EC50 (cAMP), n2” value is 22.4 nM.
Take B2: the “Primary assay EC50 (cAMP), n1” value was determined as 22.4 nM and the “Primary assay EC50 (cAMP), n2” value stood at 22.4 nM.
As to B3, the “Primary assay EC50 (cAMP), n1” value came out at 22.5 nM and the “Primary assay EC50 (cAMP), n2” value stood at 22.5 nM.
As to B4, the “Primary assay EC50 (cAMP), n1” value came to 21.6 nM and the “Primary assay EC50 (cAMP), n2” value worked out at 21.6 nM.
Take B5: the “Primary assay EC50 (cAMP), n1” value was 21.6 nM and the “Primary assay EC50 (cAMP), n2” value worked out at 21.6 nM.
As for B6, the “Primary assay EC50 (cAMP), n1” value turned out to be 22.1 nM and the “Primary assay EC50 (cAMP), n2” value came out at 22.1 nM.

Another assay deals with T1, glucose-dependent insulinotropic …. As to the kind of experiment: cell-based or functional assay.
Consider B1, for which the “Primary assay EC50 (cAMP), n1” value turned out to be 22.4 nM and the “Primary assay EC50 (cAMP), n2” value stood at 22.4 nM.
Turning to B2, the “Primary assay EC50 (cAMP), n1” value is 22.4 nM and the “Primary assay EC50 (cAMP), n2” value was determined as 22.4 nM.
As for B3, the “Primary assay EC50 (cAMP), n1” value amounted to 22.5 nM and the “Primary assay EC50 (cAMP), n2” value worked out at 22.5 nM.
Consider B4, for which the “Primary assay EC50 (cAMP), n1” value amounted to 21.6 nM and the “Primary assay EC50 (cAMP), n2” value was found to be 21.6 nM.
In the case of B5, the “Primary assay EC50 (cAMP), n1” value was determined as 21.6 nM and the “Primary assay EC50 (cAMP), n2” value was 21.6 nM.
As to B6, the “Primary assay EC50 (cAMP), n1” value is 22.1 nM and the “Primary assay EC50 (cAMP), n2” value was 22.1 nM.

For another assay, the target named is T2, GLP-1R in the INS1e assay. As to the kind of experiment: cell-based or functional assay.
For B1, the “INS1e assay EC50 (cAMP) Mean” value was found to be 13.7 nM, the “INS1e assay EC50 (cAMP) n1” value came to 15 nM and the “INS1e assay EC50 (cAMP) n2” value is 12.4 nM.
The matching figures for B2: 0.403 nM, 0.337 nM and 0.468 nM.
The matching figures for B3: 13 nM, 14.7 nM and 11.2 nM.
The matching figures for B4: 38.1 nM, 36.7 nM and 39.4 nM.
With B5, the “INS1e assay EC50 (cAMP) Mean” value amounted to 72.1 nM, the “INS1e assay EC50 (cAMP) n1” value was determined as 72.1 nM and the “INS1e assay EC50 (cAMP) n2” value is 72.1 nM.
As for B6, the “INS1e assay EC50 (cAMP) Mean” value came to 0.566 nM, the “INS1e assay EC50 (cAMP) n1” value amounted to 0.721 nM and the “INS1e assay EC50 (cAMP) n2” value was found to be 0.41 nM.
